# T1: full-length Ply2638A endolysin (PlyFL) (Staphylococcus pseudintermedius phage …, UniProt Q4ZD58 1-486)
# T1 construct: Endolysin Ply2638A of Staphylococcus pseudintermedius phage φ2638A, full length (M23 endopeptidase, central amidase, C-terminal SH3b CBD; SH3b domain is residues 393-486); internal start codon TTG at Leu180 silently changed to CTC so that only the FL isoform is made; expected mass 55.5 kDa; The TTG>CTC change at Leu180 is silent (Leu to Leu); Purified as a protein without a His-tag; In the SEC of …
# T1 sequence (looked up): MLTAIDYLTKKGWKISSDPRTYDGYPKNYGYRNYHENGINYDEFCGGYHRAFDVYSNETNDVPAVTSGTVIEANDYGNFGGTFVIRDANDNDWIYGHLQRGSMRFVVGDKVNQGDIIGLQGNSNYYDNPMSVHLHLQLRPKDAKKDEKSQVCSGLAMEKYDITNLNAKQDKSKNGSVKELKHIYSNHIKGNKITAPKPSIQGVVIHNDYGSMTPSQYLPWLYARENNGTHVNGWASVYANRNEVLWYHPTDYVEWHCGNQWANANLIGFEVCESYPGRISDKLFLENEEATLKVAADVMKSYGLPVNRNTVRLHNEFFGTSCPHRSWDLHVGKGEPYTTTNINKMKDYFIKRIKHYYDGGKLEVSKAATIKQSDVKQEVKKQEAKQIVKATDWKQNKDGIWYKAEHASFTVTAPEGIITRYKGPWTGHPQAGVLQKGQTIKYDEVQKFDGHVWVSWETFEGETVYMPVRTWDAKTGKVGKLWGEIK
# B1: Ply2638A short variant isoform (PlySV) (domain or fragment, UniProt Q4ZD58 180-486, looked up)
# chain: LKHIYSNHIKGNKITAPKPSIQGVVIHNDYGSMTPSQYLPWLYARENNGTHVNGWASVYANRNEVLWYHPTDYVEWHCGNQWANANLIGFEVCESYPGRISDKLFLENEEATLKVAADVMKSYGLPVNRNTVRLHNEFFGTSCPHRSWDLHVGKGEPYTTTNINKMKDYFIKRIKHYYDGGKLEVSKAATIKQSDVKQEVKKQEAKQIVKATDWKQNKDGIWYKAEHASFTVTAPEGIITRYKGPWTGHPQAGVLQKGQTIKYDEVQKFDGHVWVSWETFEGETVYMPVRTWDAKTGKVGKLWGEIK
# notes: expected mass 35.3 kDa; the C-terminal SH3b domain ends at residue 486; The first residue may be Met when translation starts at the TTG codon or in the recombinant construct (surmise); also called SV isoform; short variant (SV); source: E. coli, purified (cation exchange chromatography, SEC); also co-produced with the FL isoform from pET302_PlyWT (PlyWT), purified the same way
# B2: central amidase domain of Ply2638A (Ami) (domain or fragment, UniProt Q4ZD58 180-359, looked up)
# chain: LKHIYSNHIKGNKITAPKPSIQGVVIHNDYGSMTPSQYLPWLYARENNGTHVNGWASVYANRNEVLWYHPTDYVEWHCGNQWANANLIGFEVCESYPGRISDKLFLENEEATLKVAADVMKSYGLPVNRNTVRLHNEFFGTSCPHRSWDLHVGKGEPYTTTNINKMKDYFIKRIKHYYDG
# notes: Endolysin Ply2638A of phage φ2638A, central N-acetylmuramoyl-L-alanine amidase domain, residues 180-359 (Leu180-Gly359); The limits are printed for the construct used in crystallisation trials; also called amidase domain alone; source: E. coli, purified (cation exchange chromatography, SEC)
# Legend:
# [1] = target: T1, full-length Ply2638A endolysin (PlyFL); assay: SEC-MALS; 1:3 (w/w) mixture of PlyFL and PlySV at 1 mg/mL, Superdex 200 10/30, 10 mM HEPES, 150 mM NaCl, 3.4 mM EDTA, 0.005 % Tween20, pH 7.4; conditions: both partners purified
# [2] = target: T1, full-length Ply2638A endolysin (PlyFL); assay: SPR; Biacore X, PlyFL immobilised by amine coupling on a CMD500L chip; analytes at 750 nM, 1 μM, 2.5 μM and 5 μM, 10 μL/min, running buffer PBS pH 7.4; steady state not attained; conditions: both partners purified
Binder,stoichiometry N [1],binding result [2]
B1,1 PlySV per PlyFL,
B2,,binds

# Source: article doi:10.1101/2024.01.16.575832, “Heterodimerization of Endolysin Isoforms During Bacterial Infection by Staphylococcal Phage φ2638A” (bioRxiv, 2024)
